From patent US20250388688A1 (ETHYREAL BIO, published 2025)

Tests used:
[1] = molecular target: T1, soluble TSHR protein (ELISA coat) (human, UniProt P16473 22-260, limits assumed); assay: ELISA, plate coated with soluble TSHR, antibody at 300 nM, anti-human IgG Fc-HRP;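 note: TSHR coated at 2 µg/ml, bound antibody revealed by goat anti-human IgG Fc HRP, color developed with TMB and stopped with H2SO4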
Description: (§1) Select TSHR antibody variants were tested for their ability to bind TSHR in an ELISA. Briefly, soluble TSHR protein was coated onto a plate at 2 μg/ml in phosphate buffered saline (PBS). The plate was washed with PBS and blocked with 4% skim milk in PBS.
(§2) Following wash steps with 1×PBS-Tween 0.05%, bound human IgG was detected with peroxidase conjugated goat anti-human IgG (Fc specific)-HRP at 1:5000 dilution and the ELISA was developed with TMB reagent followed by H2SO4.

[2] = molecular target: T1, soluble TSHR protein (ELISA coat); assay: ELISA, plate coated with soluble TSHR, antibody at 33.3 nM, anti-human IgG Fc-HRP;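 note: binding of antibody variants to plate-bound soluble TSHR (coated at 2 µg/ml), with bound human IgG detected by HRP conjugate and colour developed using TMB substrate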
Description: as §1, §2

[3] = molecular target: T1, soluble TSHR protein (ELISA coat); assay: ELISA, plate coated with soluble TSHR, antibody at 100 nM, anti-human IgG Fc-HRP;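 note: binding of antibody variants to soluble TSHR coated at 2 µg/ml, with colour developed using TMB substrate and stopped with H2SO4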
Description: as §1, §2

[4] = molecular target: T2, Soluble TSHR (22-260) protein (human, UniProt P16473 22-260); assay: SPR (Biacore T200, 25 C), antibody captured on anti-human Fc, soluble TSHR (22-260) as analyte, 1:1 fit;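 note: antibodies captured at 0.1 ug/mL on a CM5 sensor chip bearing anti-human Fc, with HBS-EP+ running buffer at pH 7.4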
T2 construct: range 22-260
Description: Measurements were taken on a Biacore T200 at 25 C using a CM5 chip coated with anti-human Fc. Test antibodies were captured at 0.1 ug/mL in HBS-EP+ (10 mM HEPES pH7.4, 150 mM NaCl, 3 mM EDTA, 0.05% Tween 20) assay buffer. […] A 1:1 binding kinetics fit was used to calculate kinetic parameters.

ELISA (OD 450) at 300 nM [1]	ELISA (OD 450) at 33.3 nM [2]	ELISA (OD 450) at 100 nM [3]	Kd [4]	koff [4]	kon [4]	Binder
0.367 OD 450	0.38 OD 450	0.409 OD 450				TSHB-25 (antibody, V domains shown) VH: EVQLVQSGAEVKKPGASVKVSCKASGYSLTDNWIGWVRQAPGQGLEWMGIIYPGDSDTRYAQKFQGRVTMTADKSTSTVYMELSSLRSEDTAVYYCVGLDWNYNPLRYWGQGTLVTVSS VL: QSVLTQPPSVSGAPGQRVTISCSGSSSDIGSNYVSWYQQLPGTAPKLLIYDNNKRPSGVPDRFSGSKSGTSASLAITGLQAEDEADYYCGTWDSRLGIAVFGGGTKLTVL
0.289 OD 450	0.159 OD 450	0.22 OD 450	53.3 nM	0.000643 s⁻¹	12100 M⁻¹ s⁻¹	TSHB-11 (antibody, V domains shown) VH: EVQLVQSGAEVKKPGESLKISCKASGYSLTDNWIGWVRQKPGKGLEWMGIIYPGDSDTRYSPSFQGQVTISADKSISTAYLQWSSLKASDTAIYYCVGTDWNYNPLRYWGQGTLVTVSS VL: QSVLTQPPSVSAAPGQKVTISCSGSSSDIGSNYVSWYQQFPGTAPKLLIYDNNKRPSAIPDRFSGSKSGTSATLGITGLQTGDEADYYCGTWDSRLGIAVFGGGTQLTVL
0.557 OD 450	0.44 OD 450	0.496 OD 450	2.94 nM	0.000338 s⁻¹	115000 M⁻¹ s⁻¹	TSHB-10 (antibody, V domains shown) VH: EVQLVQSGAEVKKPGESLKISCKASGYSLTDNWIGWVRQKPGKGLEWMGIIYPGDSDTRYSPSFKGQVTISADKSISTAYLQWSSLKASDTAIYYCVGLDWNYNPLRYWGQGTLVTVSS VL: QSVLTQPPSVSAAPGQKVTISCSGSSSDIGSNYVSWYQQFPGTAPKLLIYDNNKRPSAIPDRFSGSKSGTSATLGITGLQTGDEADYYCGTWDSRLGIAVFGGGTQLTVL
0.478 OD 450	0.355 OD 450	0.452 OD 450	6.53 nM	0.000676 s⁻¹	104000 M⁻¹ s⁻¹	TSHB-9 (antibody, V domains shown) VH: EVQLVQSGAEVKKPGESLKISCKASGYSLTDNWTGWVRQKPGKGLEWMGIIYPGDSDTRYSPSFQGQVTISADKSISTAYLQWSSLKASDTAIYYCVGLDWNYNPLRYWGQGTLVTVSS VL: QSVLTQPPSVSAAPGQKVTISCSGSSSDIGSNYVSWYQQFPGTAPKLLIYDNNKRPSAIPDRFSGSKSGTSATLGITGLQTGDEADYYCGTWDSRLGIAVFGGGTQLTVL
0.53 OD 450	0.447 OD 450	0.493 OD 450				TSHB-22 (antibody, V domains shown) VH: EVQLVQSGAEVKKPGQSLKISCKASGYSLTDNWIGWVRQKPGKGLEWMGIIYPGDSDTRYSPSFQGQVTISADKSINTAYLQWSSLKASDTAIYYCVGLDWNYNPLRYWGPGTLVTVSS VL: QSVLTQPPSVSGAPGQRVTISCSGSSSDIGSNYVSWYQQLPGTAPKLLIYDNNKRPSGVPDRFSGSKSGTSASLAITGLQAEDEADYYCGTWDSRLGIAVFGGGTKLTVL
0.572 OD 450	0.477 OD 450	0.522 OD 450	2.52 nM	0.000352 s⁻¹	140000 M⁻¹ s⁻¹	TSHB-14 (antibody, V domains shown) VH: EVQLVQSGAEVKKPGQSLKISCKASGYSLTDNWIGWVRQKPGKGLEWMGIIYPGDSDTRYSPSFQGQVTISADKSINTAYLQWSSLKASDTAIYYCVGLDWNYNPLRYWGPGTLVTVSS VL: QSVLTQPPSVSAAPGQKVTISCSGSSSDIGSNYVSWYQQLPGTAPKLLIYDNNKRPSGIPDRFSGSKSGTSATLGITGLQTGDEADYYCGTWDSRWGIAVFGGGTQLTVL
0.561 OD 450	0.459 OD 450	0.495 OD 450				TSHB-13 (antibody, V domains shown) VH: EVQLVQSGAEVKKPGQSLKISCKASGYSLTDNWIGWVRQKPGKGLEWMGIIYPGDSDTRYSPSFQGQVTISADKSINTAYLQWSSLKASDTAIYYCVGLDWNYNPLRYWGPGTLVTVSS VL: QSVLTQPPSVSAAPGQKVTISCSGSSSDIGSNYVSWYQQLPGTAPKLLIYDNNKRPSGIPDRFSGSKSGTSATLGITGLQTGDEADYYCGTWDSRLGIAVFGGGTQLTVL

The remaining lines, values behind:

Binder	ELISA (OD 450) at 300 nM [1]	ELISA (OD 450) at 33.3 nM [2]	ELISA (OD 450) at 100 nM [3]	Kd [4]	koff [4]	kon [4]
parental TSHR-binding antibody (antibody, V domains shown, it has a human Fc (captured on anti-human Fc, detected with anti-human IgG Fc); also called parental antibody; parental anti-TSHR antibody) VH: EVQLVQSGAEVKKPGQSLKISCKASGYSLTDNWIGWVRQKPGKGLEWMGIIYPGDSDTRYSPSFQGQVTISADKSINTAYLQWSSLKASDTAIYYCVGLDWNYNPLRYWGPGTLVTVSS VL: QSVLTQPPSVSAAPGQKVTISCSGSSSDIGSNYVSWYQQFPGTAPKLLIYDNNKRPSAIPDRFSGSKSGTSATLGITGLQTGDEADYYCGTWDSRLGIAVFGGGTQLTVL	0.461 OD 450	0.406 OD 450	0.43 OD 450			
TSHB-12 (antibody, V domains shown) VH: EVQLVQSGAEVKKPGASVKVSCKASGYSLTDNWIGWVRQAPGQGLEWMGIIYPGDSDTRYAQKFQGRVTMTADKSTSTVYMELSSLRSEDTAVYYCVGLDWNYNPLRYWGQGTLVTVSS VL: QSVLTQPPSVSAAPGQKVTISCSGSSSDIGSNYVSWYQQFPGTAPKLLIYDNNKRPSAIPDRFSGSKSGTSATLGITGLQTGDEADYYCGTWDSRLGIAVFGGGTQLTVL	0.52 OD 450	0.402 OD 450	0.475 OD 450			
TSHB-6 (antibody, V domains shown) VH: EVQLVQSGAEVKKPGESLKISCKASGYSLNDNWIGWVRQKPGKGLEWMGIIYPGDSDTRYSPSFQGQVTISADKSISTAYLQWSSLKASDTAIYYCVGLDWNYNPLRYWGQGTLVTVSS VL: QSVLTQPPSVSAAPGQKVTISCSGSSSDIGSNYVSWYQQFPGTAPKLLIYDNNKRPSAIPDRFSGSKSGTSATLGITGLQTGDEADYYCGTWDSRLGIAVFGGGTQLTVL	0.548 OD 450	0.45 OD 450	0.493 OD 450	3.73 nM	0.000532 s⁻¹	142000 M⁻¹ s⁻¹
TSHB-7 (antibody, V domains shown) VH: EVQLVQSGAEVKKPGESLKISCKASGYSLKDNWIGWVRQKPGKGLEWMGIIYPGDSDTRYSPSFQGQVTISADKSISTAYLQWSSLKASDTAIYYCVGLDWNYNPLRYWGQGTLVTVSS VL: QSVLTQPPSVSAAPGQKVTISCSGSSSDIGSNYVSWYQQFPGTAPKLLIYDNNKRPSAIPDRFSGSKSGTSATLGITGLQTGDEADYYCGTWDSRLGIAVFGGGTQLTVL	0.555 OD 450	0.443 OD 450	0.491 OD 450	4.11 nM	0.000477 s⁻¹	116000 M⁻¹ s⁻¹
TSHB-4 (antibody, V domains shown) VH: EVQLVQSGAEVKKPGESLKISCKASGYELTDNWIGWVRQKPGKGLEWMGIIYPGDSDTRYSPSFQGQVTISADKSISTAYLQWSSLKASDTAIYYCVGLDWNYNPLRYWGQGTLVTVSS VL: QSVLTQPPSVSAAPGQKVTISCSGSSSDIGSNYVSWYQQFPGTAPKLLIYDNNKRPSAIPDRFSGSKSGTSATLGITGLQTGDEADYYCGTWDSRLGIAVFGGGTQLTVL	0.542 OD 450	0.374 OD 450	0.453 OD 450	2.41 nM	0.000362 s⁻¹	150000 M⁻¹ s⁻¹
TSHB-1 (antibody, V domains shown) VH: EVQLVQSGAEVKKPGESLKISCKASGYSLTDNWIGWVRQKPGKGLEWMGIIYPGDSDTRYSPSFQGQVTISADKSISTAYLQWSSLKASDTAIYYCVGLDWNYNPLRYWGQGTLVTVSS VL: QSVLTQPPSVSAAPGQKVTISCSGSSSDIGSNYVSWYQQFPGTAPKLLIYDNNKRPSAIPDRFSGSKSGTSATLGITGLQTGDEADYYCGTWDSRLGIAVFGGGTQLTVL	0.641 OD 450	0.442 OD 450	0.506 OD 450	1.7 nM	0.000273 s⁻¹	161000 M⁻¹ s⁻¹
TSHB-5 (antibody, V domains shown) VH: EVQLVQSGAEVKKPGESLKISCKASGYQLTDNWIGWVRQKPGKGLEWMGIIYPGDSDTRYSPSFQGQVTISADKSISTAYLQWSSLKASDTAIYYCVGLDWNYNPLRYWGQGTLVTVSS VL: QSVLTQPPSVSAAPGQKVTISCSGSSSDIGSNYVSWYQQFPGTAPKLLIYDNNKRPSAIPDRFSGSKSGTSATLGITGLQTGDEADYYCGTWDSRLGIAVFGGGTQLTVL	0.578 OD 450	0.414 OD 450	0.498 OD 450	2.82 nM	0.00044 s⁻¹	156000 M⁻¹ s⁻¹
TSHB-3 (antibody, V domains shown) VH: EVQLVQSGAEVKKPGESLKISCKASGYSLTDNWIGWVRQKPGKGLEWMGIIYPGDSDTRYSPSFQGQVTISADKSISTAYLQWSSLKASDTAIYYCVGLEWNYNPLRYWGQGTLVTVSS VL: QSVLTQPPSVSAAPGQKVTISCSGSSSDIGSNYVSWYQQFPGTAPKLLIYDNNKRPSAIPDRFSGSKSGTSATLGITGLQTGDEADYYCGTWDSRLGIAVFGGGTQLTVL	0.467 OD 450	0.351 OD 450	0.407 OD 450	3.01 nM	0.000533 s⁻¹	177000 M⁻¹ s⁻¹
TSHB-8 (antibody, V domains shown) VH: EVQLVQSGAEVKKPGESLKISCKASGYSLTDNWIGWVRQKPGKGLEWMGIIYPGDSDTRYSPSFQGQVTISADKSISTAYLQWSSLKASDTAMYYCVGLDWNYNPLRYWGQGTLVTVSS VL: QSVLTQPPSVSAAPGQKVTISCSGSSSDIGSNYVSWYQQFPGTAPKLLIYDNNKRPSAIPDRFSGSKSGTSATLGITGLQTGDEADYYCGTWDSRLGIAVFGGGTQLTVL	0.586 OD 450	0.471 OD 450	0.551 OD 450	2.25 nM	0.000344 s⁻¹	153000 M⁻¹ s⁻¹
